US8003342

Target: rat brain farnesyl:protein transferase (rat) (UniProt Q04631)
Test: cell-based or functional assay

For “CVIM with glutamic acid at the A2 position (peptide)”, which fold decline of affinity is on record?
Its fold decline of affinity is greater than 50 fold.

For “CVIM with glutamic acid at the X position (peptide)”, which concentration giving 50% inhibition is on record?
Its concentration giving 50% inhibition is greater than 40 µM.

Which concentration giving 50% inhibition does the source give for “CVIM with glycine at the X position (peptide)” here?
Its concentration giving 50% inhibition is greater than 40 µM.

What does the source list for “CVIM with lysine at the A2 position (peptide)”?
fold decline of affinity: > 50 fold; fold decrease of affinity against CVIM, from the concentration required for 50% inhibition: > 30 fold

“CVIM with lysine at the X position (peptide)” was tested. Which concentration giving 50% inhibition did it give?
Its concentration giving 50% inhibition is greater than 40 µM.

What about the fold decrease of affinity against CVIM, from the concentration required for 50% inhibition of the same substance?
The fold decrease of affinity against CVIM, from the concentration required for 50% inhibition was greater than 30 fold.
